Experimental data: the supplement of paper PMC10065799, “High-throughput profiling of sequence recognition by tyrosine kinases and SH2 domains using bacterial peptide display” (eLife, 2023)

How the values were obtained:
SHP2-C SH2 = experiment: SH2 binding enrichment of the phosphorylated peptide, bacterial display (enrichment ratio); higher = better substrate or ligand; peptides without Tyr show the background
c-Src SH2 = experiment: as above
Grb2 SH2 = Grb2 SH2 (UniProt P62993); experiment: as above
MERTK = MERTK (UniProt Q12866); experiment: phosphorylation enrichment, bacterial display (enrichment ratio); higher = better substrate or ligand; peptides without Tyr show the background
EPHB1 = EPHB1 (UniProt P54762); experiment: as above
Jak2 = Jak2 (UniProt O60674); experiment: as above
c-Src = experiment: as above
FGFR1 = FGFR1 (UniProt P11362); experiment: as above
c-Abl (mouse) = experiment: as above
Hck = Hck (UniProt P08631); experiment: as above
AncSZ = experiment: as above
EPHB2 = EPHB2 (UniProt P29323); experiment: as above
FGFR3 = FGFR3 (UniProt P22607); experiment: as above
Fer (mouse) = experiment: as above
Fyn = Fyn (UniProt P06241); experiment: as above
Fes = Fes (UniProt P07332); experiment: as above
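For SH2 binding enrichment of the phosphorylated peptide, bacterial display in this document: peptide library displayed on the E. coli surface as eCPX fusions, selected cells deep-sequenced, score is each peptide's frequency after selection divided by its frequency in the input.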
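For phosphorylation enrichment, bacterial display in this document: 11-residue human phosphosite peptides and single-mutation variants displayed on the E. coli surface, counted by deep sequencing, each peptide's frequency after selection divided by its frequency in the unselected input library; frequency after pTyr selection over input frequency; kinase dosed for 20-30% of maximal phosphorylation in three min.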

Chain of FGFR1 (P11362 whole entry, looked up): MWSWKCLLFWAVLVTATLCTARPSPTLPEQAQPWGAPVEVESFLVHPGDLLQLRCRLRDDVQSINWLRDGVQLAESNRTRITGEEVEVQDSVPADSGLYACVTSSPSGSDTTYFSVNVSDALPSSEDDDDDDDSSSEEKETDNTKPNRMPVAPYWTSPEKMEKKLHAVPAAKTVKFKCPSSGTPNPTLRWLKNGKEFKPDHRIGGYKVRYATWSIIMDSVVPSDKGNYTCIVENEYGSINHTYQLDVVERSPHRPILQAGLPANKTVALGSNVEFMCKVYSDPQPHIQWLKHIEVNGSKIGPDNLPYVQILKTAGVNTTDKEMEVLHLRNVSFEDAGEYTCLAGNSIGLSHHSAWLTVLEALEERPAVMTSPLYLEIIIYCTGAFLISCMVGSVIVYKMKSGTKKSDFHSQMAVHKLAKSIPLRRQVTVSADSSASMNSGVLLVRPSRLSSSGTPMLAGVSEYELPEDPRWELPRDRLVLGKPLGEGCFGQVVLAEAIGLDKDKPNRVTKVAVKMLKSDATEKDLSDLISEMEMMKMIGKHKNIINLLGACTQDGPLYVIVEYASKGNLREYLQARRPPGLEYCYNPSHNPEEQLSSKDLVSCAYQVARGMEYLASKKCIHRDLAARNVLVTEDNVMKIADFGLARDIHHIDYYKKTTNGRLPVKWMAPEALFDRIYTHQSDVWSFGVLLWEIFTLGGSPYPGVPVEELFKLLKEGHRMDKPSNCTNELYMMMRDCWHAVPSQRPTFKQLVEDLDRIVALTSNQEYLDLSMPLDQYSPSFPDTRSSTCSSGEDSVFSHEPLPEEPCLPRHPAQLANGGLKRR
Chain of EPHB2 (P29323 whole entry, looked up): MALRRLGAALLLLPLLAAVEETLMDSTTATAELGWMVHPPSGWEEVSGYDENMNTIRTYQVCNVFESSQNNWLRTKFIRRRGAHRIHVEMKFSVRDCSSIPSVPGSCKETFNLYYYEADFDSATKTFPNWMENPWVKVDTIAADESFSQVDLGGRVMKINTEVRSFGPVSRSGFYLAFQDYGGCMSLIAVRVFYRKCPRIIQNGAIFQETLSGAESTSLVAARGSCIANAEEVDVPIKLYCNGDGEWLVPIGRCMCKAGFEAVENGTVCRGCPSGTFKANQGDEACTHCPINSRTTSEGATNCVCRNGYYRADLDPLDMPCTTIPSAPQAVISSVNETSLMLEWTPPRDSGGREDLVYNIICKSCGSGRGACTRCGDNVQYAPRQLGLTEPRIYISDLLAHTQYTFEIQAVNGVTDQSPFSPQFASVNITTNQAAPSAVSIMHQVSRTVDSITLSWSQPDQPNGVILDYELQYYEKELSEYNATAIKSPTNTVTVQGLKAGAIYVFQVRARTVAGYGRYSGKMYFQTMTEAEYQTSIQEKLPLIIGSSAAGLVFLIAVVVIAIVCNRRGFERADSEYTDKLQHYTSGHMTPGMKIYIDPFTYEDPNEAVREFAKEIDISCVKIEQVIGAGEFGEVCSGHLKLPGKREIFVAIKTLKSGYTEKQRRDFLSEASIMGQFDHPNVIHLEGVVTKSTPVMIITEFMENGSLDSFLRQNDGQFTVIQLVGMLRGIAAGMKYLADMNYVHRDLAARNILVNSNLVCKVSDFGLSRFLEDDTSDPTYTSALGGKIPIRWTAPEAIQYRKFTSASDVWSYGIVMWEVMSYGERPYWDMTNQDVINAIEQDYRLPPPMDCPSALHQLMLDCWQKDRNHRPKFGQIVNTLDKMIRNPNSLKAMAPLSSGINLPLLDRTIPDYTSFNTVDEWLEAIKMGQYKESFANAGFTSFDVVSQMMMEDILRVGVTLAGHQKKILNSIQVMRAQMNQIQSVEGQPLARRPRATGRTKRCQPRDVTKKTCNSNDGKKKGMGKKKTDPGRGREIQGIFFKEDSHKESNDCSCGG
Chain of MERTK (Q12866 whole entry, looked up): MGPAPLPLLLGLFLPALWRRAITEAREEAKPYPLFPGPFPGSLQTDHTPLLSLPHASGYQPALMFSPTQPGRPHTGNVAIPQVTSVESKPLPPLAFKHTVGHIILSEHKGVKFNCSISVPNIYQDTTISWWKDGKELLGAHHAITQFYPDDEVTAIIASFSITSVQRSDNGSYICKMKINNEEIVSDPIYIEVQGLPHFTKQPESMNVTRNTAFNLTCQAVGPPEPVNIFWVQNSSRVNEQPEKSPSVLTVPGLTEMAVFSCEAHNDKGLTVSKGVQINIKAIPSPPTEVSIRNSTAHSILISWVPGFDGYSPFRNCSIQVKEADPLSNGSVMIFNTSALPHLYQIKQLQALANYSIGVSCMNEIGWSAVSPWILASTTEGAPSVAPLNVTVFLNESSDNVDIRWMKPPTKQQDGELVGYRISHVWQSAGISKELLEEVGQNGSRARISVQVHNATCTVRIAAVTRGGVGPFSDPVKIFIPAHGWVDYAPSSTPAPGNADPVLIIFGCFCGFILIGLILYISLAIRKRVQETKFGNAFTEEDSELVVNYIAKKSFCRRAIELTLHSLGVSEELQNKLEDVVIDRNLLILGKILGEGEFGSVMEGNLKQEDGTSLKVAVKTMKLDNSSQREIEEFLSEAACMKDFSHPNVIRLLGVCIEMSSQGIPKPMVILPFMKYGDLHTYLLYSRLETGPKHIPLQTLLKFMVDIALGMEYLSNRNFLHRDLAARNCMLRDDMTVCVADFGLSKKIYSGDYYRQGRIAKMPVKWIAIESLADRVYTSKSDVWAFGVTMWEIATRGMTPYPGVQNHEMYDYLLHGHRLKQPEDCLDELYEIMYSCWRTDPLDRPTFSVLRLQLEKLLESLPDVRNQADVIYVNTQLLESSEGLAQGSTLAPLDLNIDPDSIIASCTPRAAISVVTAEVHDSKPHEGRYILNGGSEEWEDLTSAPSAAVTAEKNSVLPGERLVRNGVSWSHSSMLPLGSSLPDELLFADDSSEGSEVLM
Chain of Grb2 SH2 (P62993 whole entry, looked up): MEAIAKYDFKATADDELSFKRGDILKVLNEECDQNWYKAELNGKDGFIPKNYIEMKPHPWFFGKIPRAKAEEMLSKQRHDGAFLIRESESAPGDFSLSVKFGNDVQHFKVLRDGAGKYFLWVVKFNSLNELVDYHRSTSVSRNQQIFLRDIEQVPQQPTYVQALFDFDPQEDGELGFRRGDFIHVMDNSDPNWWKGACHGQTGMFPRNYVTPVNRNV
Chain of EPHB1 (P54762 whole entry, looked up): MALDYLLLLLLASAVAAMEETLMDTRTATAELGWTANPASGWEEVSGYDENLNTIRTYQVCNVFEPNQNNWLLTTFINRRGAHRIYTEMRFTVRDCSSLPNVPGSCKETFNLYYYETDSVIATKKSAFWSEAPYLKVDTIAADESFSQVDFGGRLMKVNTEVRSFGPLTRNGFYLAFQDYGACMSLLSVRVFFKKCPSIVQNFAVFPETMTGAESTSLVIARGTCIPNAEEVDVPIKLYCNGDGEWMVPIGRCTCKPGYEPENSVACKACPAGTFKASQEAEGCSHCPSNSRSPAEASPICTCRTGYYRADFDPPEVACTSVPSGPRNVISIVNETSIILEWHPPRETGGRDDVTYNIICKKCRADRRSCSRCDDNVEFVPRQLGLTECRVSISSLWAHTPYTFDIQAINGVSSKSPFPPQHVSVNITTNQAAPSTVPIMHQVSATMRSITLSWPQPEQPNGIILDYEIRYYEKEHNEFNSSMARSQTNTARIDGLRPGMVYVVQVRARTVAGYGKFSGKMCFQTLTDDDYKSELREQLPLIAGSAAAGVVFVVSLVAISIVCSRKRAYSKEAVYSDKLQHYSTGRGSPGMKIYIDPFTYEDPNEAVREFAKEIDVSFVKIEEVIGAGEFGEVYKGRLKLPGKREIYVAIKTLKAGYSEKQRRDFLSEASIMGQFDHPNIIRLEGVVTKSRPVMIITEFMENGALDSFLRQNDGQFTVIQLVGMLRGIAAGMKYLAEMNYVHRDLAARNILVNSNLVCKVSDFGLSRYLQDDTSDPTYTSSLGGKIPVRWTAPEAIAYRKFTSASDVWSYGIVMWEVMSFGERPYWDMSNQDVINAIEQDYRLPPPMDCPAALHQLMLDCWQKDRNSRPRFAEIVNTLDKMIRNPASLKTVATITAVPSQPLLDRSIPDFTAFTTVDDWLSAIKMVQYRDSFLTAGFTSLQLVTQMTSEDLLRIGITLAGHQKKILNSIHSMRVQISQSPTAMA
Chain of Hck (P08631 whole entry, looked up): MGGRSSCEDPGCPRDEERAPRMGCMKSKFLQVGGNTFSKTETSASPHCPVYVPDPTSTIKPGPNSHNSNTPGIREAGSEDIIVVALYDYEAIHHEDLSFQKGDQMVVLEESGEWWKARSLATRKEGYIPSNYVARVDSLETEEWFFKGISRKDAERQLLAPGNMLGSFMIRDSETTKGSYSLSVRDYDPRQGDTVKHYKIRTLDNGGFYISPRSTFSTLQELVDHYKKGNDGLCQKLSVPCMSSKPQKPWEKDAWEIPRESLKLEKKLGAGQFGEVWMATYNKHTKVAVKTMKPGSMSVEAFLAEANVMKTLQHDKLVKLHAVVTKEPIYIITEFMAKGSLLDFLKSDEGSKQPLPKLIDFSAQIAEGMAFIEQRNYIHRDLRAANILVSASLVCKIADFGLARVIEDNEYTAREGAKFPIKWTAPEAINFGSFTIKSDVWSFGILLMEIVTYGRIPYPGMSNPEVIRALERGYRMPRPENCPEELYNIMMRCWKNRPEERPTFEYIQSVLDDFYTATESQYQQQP

| Sequence | SH2 binding enrichment (SHP2-C SH2) | SH2 binding enrichment (c-Src SH2) | SH2 binding enrichment (Grb2 SH2) | phosphorylation enrichment (MERTK) | phosphorylation enrichment (EPHB1) | phosphorylation enrichment (Jak2) | phosphorylation enrichment (c-Src) | phosphorylation enrichment (FGFR1) | phosphorylation enrichment (c-Abl (mouse)) | phosphorylation enrichment (Hck) | phosphorylation enrichment (AncSZ) | phosphorylation enrichment (EPHB2) | phosphorylation enrichment (FGFR3) | phosphorylation enrichment (Fer (mouse)) | phosphorylation enrichment (Fyn) | phosphorylation enrichment (Fes) |
| --- | --- | --- | --- | --- | --- | --- | --- | --- | --- | --- | --- | --- | --- | --- | --- | --- |
| KINKMYSDHAM | 0.602 | 0.354 | 0.705 | 0.432 | 0.351 | 0.5 | 0.416 | 0.315 | 0.499 | 0.308 | 0.495 | 0.285 | 0.364 | 0.408 | 0.349 | 0.463 |
| STLEVYSCHPP [IL21R_Y317] | 0.559 | 0.451 | 0.71 | 0.774 | 1.04 | 1.38 | 1.65 | 0.698 | 1.31 | 1.27 | 1.33 | 1.34 | 1.04 | 0.904 | 1.25 | 1.56 |
| GLDGRYLLRDS [SH2D1A_Y29_S28R] | 0.7 | 0.515 | 0.817 | 0.41 | 0.423 | 0.51 | 0.436 | 0.531 | 0.441 | 0.395 | 0.651 | 0.448 | 0.488 | 0.637 | 0.372 | 0.734 |
| HSFNSYTFPRL [PAK5_Y316_YF] | 0.494 | 0.481 | 0.699 | 0.55 | 0.802 | 1.31 | 0.374 | 0.59 | 0.849 | 0.525 | 1.78 | 0.629 | 0.958 | 0.489 | 0.407 | 1.74 |
| IDPYIYTPFGS [CYP3A4_Y432] | 0.868 | 0.713 | 0.775 | 3.67 | 0.702 | 2.38 | 6.67 | 2.44 | 0.865 | 5.71 | 1.43 | 0.701 | 1.66 | 1.9 | 7.45 | 0.956 |
| YSTPPYLLEAA [BRIP1_Y921_S919P] | 0.811 | 1.08 | 0.862 | 3.63 | 0.664 | 1.04 | 1.6 | 1.16 | 1.8 | 1.61 | 1.77 | 0.711 | 0.935 | 1.09 | 1.56 | 1.17 |
| QNKEDYDGLKE [GSTO1_Y139_A140D] | 0.737 | 0.765 | 1.09 | 0.666 | 1.02 | 1.13 | 0.641 | 0.867 | 1.19 | 0.915 | 1.83 | 1.04 | 1.3 | 0.754 | 0.943 | 1.74 |
| GMTLSYLFWEP [NDUFS8_Y74_R77W] | 0.916 | 0.737 | 0.984 | 1.43 | 0.875 | 5.21 | 0.659 | 4.73 | 1.32 | 0.629 | 1.85 | 0.737 | 3.63 | 3.7 | 0.501 | 1.59 |
| RASGIYFVPKG [APBB1IP_Y340_YF] | 1.11 | 0.935 | 1.12 | 13.8 | 5.1 | 2.91 | 4.75 | 1.71 | 34.3 | 8.1 | 1.17 | 2.37 | 1.71 | 0.731 | 6.15 | 1.2 |
| RALCHYFKLNI [ETV6_Y401_R399C_YF] | 2.22 | 1.5 | 1.34 | 0.634 | 0.691 | 1.27 | 0.667 | 0.783 | 1.09 | 0.776 | 1.33 | 0.885 | 0.975 | 0.719 | 0.54 | 1.37 |
| PEAALYGRFTF [FYN_Y440_I445F] | 0.563 | 0.328 | 0.652 | 5.92 | 1.14 | 1.41 | 7.87 | 1.29 | 4.39 | 8.89 | 1.21 | 1.2 | 0.971 | 2.75 | 10.1 | 1.6 |
| ADLTEYLSTHF [UQCRC1_Y219_YF] | 0.539 | 0.4 | 0.717 | 0.571 | 0.681 | 1.2 | 0.561 | 0.699 | 0.958 | 0.604 | 1.43 | 0.672 | 0.923 | 0.493 | 0.577 | 1.35 |
| IEDNEYTAREG [HCK_Y411] | 0.666 | 0.539 | 0.803 | 0.519 | 0.637 | 1.33 | 0.67 | 0.722 | 1.08 | 0.588 | 1.56 | 0.491 | 0.759 | 0.515 | 0.576 | 1.33 |
| EASEQYLTKAS [NRCAM_Y739] | 0.696 | 0.417 | 0.901 | 0.485 | 0.424 | 0.793 | 0.458 | 0.571 | 0.798 | 0.43 | 0.711 | 0.425 | 0.556 | 0.463 | 0.496 | 0.802 |
| MCTVDYLLRLQ [RYR1_Y3921_I3916M] | 0.765 | 0.523 | 0.84 | 0.516 | 0.597 | 1.19 | 0.487 | 0.526 | 0.866 | 0.529 | 1.07 | 0.62 | 0.684 | 0.504 | 0.546 | 1.35 |
